Here are results for 21 variants from the RNAGym collection of RNA variant scans (doi:10.7554/elife.90254).

B1: OR4K15 (parent)
chain: GUUAACGGUCAUAGGCCAUGGAAACUAGGAGCACCAUUUCGCUGCCAGUGAAGAAAUGAACAAAGAAAAUCUGGGCCAGGCAGGCAUCAAAAGAAAUAGUCUUGCGCUCAACCAGAAAGUCUGUAAUCAUUUUAAGGGUA

The variants in this data set derive from B1. Briefly: self-cleavage, relative activity (ratio to wild type); higher = more cleavage; in vitro, sequencing; the parent is a self-cleaving ribozyme.
In the case of GUUAACGGUCAUAGGCCAUGGAAACUAGGAGCACCAUUUCGCUGCCAGUGAAGAAAUGAACAAAGAAAAUCUGGGCCAGGCUGGCAUCAAAAGAAAUAGUCUUGCGCUCAACCUGAAAGUCUGUAAUCAUUUUAAGGGUA [A82U A114U], the self-cleavage amounted to 0.01.

For GUUAACGGUCAUAGGCCAUGGAAACUAGGAGCACCAUUUCGCUGCCAGUGAAGAAAUGAACAAAGAAAAUCUGGGCCAGGCUGGCAUCAAAAGAAAUAGUCUUGCGCUCAACCAGAAAGUCUGUAAUCACUUUAAGGGUA [A82U U130C], the self-cleavage came out at 0.14.

For the variant GUUAACGGUCAUAGGCCAUGGAAACUAGGAGCACCACUUCGCUGCCAGUGAAGAAAUGAACAAAGAAAAUCUGGGCCAGGCAGGCAUCAAAAGAAAUAGUCUUGCGCUCGACCAGAAAGUCUGUAAUCAUUUUAAGGGUA [U37C A110G], the self-cleavage was 0.13.

For GUUAACGGUCAUAGGCCAUGGAAACUAGGAGCACCAUUUCGCCGCCAGUGAAGAAACGAACAAAGAAAAUCUGGGCCAGGCAGGCAUCAAAAGAAAUAGUCUUGCGCUCAACCAGAAAGUCUGUAAUCAUUUUAAGGGUA [U43C U57C], the self-cleavage worked out at 0.31.

In the case of GUUAACGGUCAUAGGCCAUGGAAACUAGGAGCACCAUUUCGCUGCCAGUGAAGAAAUGAACAAAGAAAAUCUGGGCCAGGCAGGCAUCAAAAGAGAUAGUCUUGCGCUCAACCAGAAAGUCUGUAAUCAUUUUAUGGGUA [A95G A135U], the self-cleavage is 1.45.

As for GUUAACGGUCAUAGGCCAUGGAAACUAGGAGCACCAUUUCGCUGCCAGUGAAGAAAUGAGCAAAGAAAAUCUGGGCCAGGCAGGCAUCAAAAGAAAUAGUCUUGCGCUCAACCUGAAAGUCUGUAAUCAUUUUAAGGGUA [A60G A114U], the self-cleavage is 0.06.

As to GUUAACGGUCAUAGGCCAUGGAAACUAGGAGCACCAUUUCGCUGCCAGUGAAGAUAUGAACAAAGAAAAUCUGGGCCAGGCAGGCAUCAAGAGAAAUAGUCUUGCGCUCAACCAGAAAGUCUGUAAUCAUUUUAAGGGUA [A55U A91G], the self-cleavage was 1.73.

For GUUAACGGUCAUAGGCCAUGGAAACUAGGAGCACCAUUCCGCUGCCAGUUAAGAAAUGAACAAAGAAAAUCUGGGCCAGGCAGGCAUCAAAAGAAAUAGUCUUGCGCUCAACCAGAAAGUCUGUAAUCAUUUUAAGGGUA [U39C G50U], the self-cleavage is 1.89.

With GUUAACGGUCAUAGGCCAUGGAAACUAGGAGCUCCAUUUCGCUGCCAGUGAAGAAAUGAACAAAGAAAAUCUGGGCCAGGCAGGCAUCAAGAGAAAUAGUCUUGCGCUCAACCAGAAAGUCUGUAAUCAUUUUAAGGGUA [A33U A91G], the self-cleavage worked out at 0.6.

With GUUAACGGUCAUAGGCCAAGGAAACUAGGAGCACCAUUCCGCUGCCAGUGAAGAAAUGAACAAAGAAAAUCUGGGCCAGGCAGGCAUCAAAAGAAAUAGUCUUGCGCUCAACCAGAAAGUCUGUAAUCAUUUUAAGGGUA [U19A U39C], the self-cleavage was 0.99.

In the case of GUCAACGGUCAUAGGCCAUGGAAACUAGGAGCACCAUUUCGCUGCCAGUGAAGAAAUGAACAAAGAAAAUCAGGGCCAGGCAGGCAUCAAAAGAAAUAGUCUUGCGCUCAACCAGAAAGUCUGUAAUCAUUUUAAGGGUA [U3C U72A], the self-cleavage is 0.17.

For the variant GUUAGCGGUCAUAGGCCAUGGAAACUAGGAGCACCAUUUCGCUGCCAGUGAAGAAAUGAACAAAGAAUAUCUGGGCCAGGCAGGCAUCAAAAGAAAUAGUCUUGCGCUCAACCAGAAAGUCUGUAAUCAUUUUAAGGGUA [A5G A68U], the self-cleavage came to 0.85.

With GUUAACGGUCAUAGGCCAUGGAAACUAGGAGCACCAUUUCGCUGCCAGUGAAGAAAUGAACAAAGAAAAUCUGGGCCAGGCAGACAUCAAAAGAAAUAGUCUUGCGCUCAACCAGAAAGUCUGUAAUCAUUUUAAGGGUA [G84A], the self-cleavage is 2.05.

For the variant GUUAACGGUCAUAGGCCAUGGAAACUAGGAGCACCAUUUCGCUGCCAGUGAAGAAAUGAACAAAGAAAAUCUGGGCCAGGCAGGCAUCAAAGGAAAUAGUCUUGCGCUCGACCAGAAAGUCUGUAAUCAUUUUAAGGGUA [A92G A110G], the self-cleavage came to 0.17.

In the case of GUUAACGGUCAUAGGCCAUGGAGACUAGGAGCACCAUUUCGCUGCCAGUGAAGAAAUGAACAAAGAAAAUCUGGGCCAGGCAGACAUCAAAAGAAAUAGUCUUGCGCUCAACCAGAAAGUCUGUAAUCAUUUUAAGGGUA [A23G G84A], the self-cleavage came out at 1.58.

In the case of GUUAACGGUCAUAGGCCAUGGAAACUAGGAGCACCAUUUCGCUGCCAGUGGAGAAAUGAACAAAGAAAAUCUGGGCCAGGCAGGCAUCAAAAGAAAUAGUCUUGCGCUCAACCAGAAUGUCUGUAAUCAUUUUAAGGGUA [A51G A118U], the self-cleavage worked out at 0.39.

GUUAACGGUCAUAGGCCAUGGAAACUAGGAGCACCAUUUCGCUGCCAGUGAAGAAAUGAACUAAGAAAAUCUGGGCCAGGCAGGCAUCAAGAGAAAUAGUCUUGCGCUCAACCAGAAAGUCUGUAAUCAUUUUAAGGGUA [A62U A91G]: the self-cleavage worked out at 0.94.

Consider GUUAACGGUCAUAGGCCAUGGAAACUAGGAGCACCAUUUCGCUGCCAGUGAAGAAAUGAACAAAGAAAGUCUGGGCCAGGCAGGCAUCAAAAGAAAUAGUCUUGCGCUCGACCAGAAAGUCUGUAAUCAUUUUAAGGGUA [A69G A110G], for which the self-cleavage is 0.14.

Regarding GUUAACGGUCAUAGGCCAUGGAAACUAGGAGCACCAUUUCGCUGCCGGUGAAGAAAUGAACAAAGAAAAUCUGGGCCAGGCAGGCAUCAAAAGAAAUAGUCUCGCGCUCAACCAGAAAGUCUGUAAUCAUUUUAAGGGUA [A47G U103C], the self-cleavage is 0.34.

For the variant GUUAACGGUCAUAGGCCAUGGAAACUAGGAGCACCAUUUCACCGCCAGUGAAGAAAUGAACAAAGAAAAUCUGGGCCAGGCAGGCAUCAAAAGAAAUAGUCUUGCGCUCAACCAGAAAGUCUGUAAUCAUUUUAAGGGUA [G41A U43C], the self-cleavage came out at 1.72.

Take GUUAACGGUCAUAGGCCAUGGAAACUAGGAGCACCAUUUCGCUGCCAGUGAAGAAAUGAACAAAGAAAAUCUGGGCCAGGCAGGCAUCAAAAGAAAUAGUCUUGCGCUCAACCAGGGAGUCUGUAAUCAUUUUAAGGGUA [A116G A117G]: the self-cleavage worked out at 0.55.
